Source: US11685791B2, “Antibody binding specifically to N-terminal region of lysyl-tRNA synthetase exposed on cell membrane” (Zymedi Co., Ltd., priority 2017, dated 2023)

How the values were obtained:
[1] = test system: monocyte/macrophage infiltration into lung tissues (CD68); assay: IHC staining of CD68 in lung tissues of PAH model; type: in vivo, rat; conditions: PAH rats, 1 mpk or 10 mpk, 3 weeks
Description: The collected lungs were fixed in paraformaldehyde (PFA) according to the ordinary procedure, and then paraffin-infiltrated and embedded through washing, dehydration, and clearing. The rat lung tissue paraffin blocks were micro-sectioned to a thickness of 6 μm, and slides were manufactured. Thereafter, staining was performed as below. The sample was first treated with xylene for 5 min three times, treated with 100% ethanol, 95% ethanol, 90% ethanol, and 70% ethanol, and DW in that order for 2 min, and washed with PBS for 5 min. After 0.3% H2O2 treatment, the sample was washed with PBS for 5 min twice. The sample was immersed in 0.01 M citrate buffer, heated, and washed with PBS-T (0.03% Tween 20). Thereafter, the sample was blocked (2% BSA & 2% goat serum in PBS) at room temperature for 30 min. The sample was stained with anti-CD68 antibody (1:200, ED1 clone, Abcam) at 4° C. overnight. The sample was washed with PBS-T for 5 min three times, and then treated with polymer-HRP anti-mouse envision kit (DAKO) at 4° C. for 1 h. The sample was washed with PBS-T three times, and then color-developed by the treatment with DAB substrate buffer and DAB chromogen 20. The stained tissue was treated with Mayer's hematoxylin (Sigma) for 1 min, and then treated with 70% ethanol, 90% ethanol, 95% ethanol, and 100% ethanol in that order for 2 min each twice. […]

[2] = test system: human KRS N-terminal peptide fragments (F1-F5); assay: SPR (Biacore T200) of immobilized N3 IgG against human KRS N-terminal peptide fragments; type: binding
Description: First, N3 IgG antibody was immobilized to Biacore T200 (GE Healthcare) equipped with Series S sensor chip CM5 (GE Healthcare) by using an amine coupling kit (GE Healthcare). Then, the peptides shown in Table 4 below dissolved in PBS solution at corresponding concentrations were allowed to flow for 60 s. Then, PBS was allowed to flow for 5 min. Then, the binding ability was analyzed by Biacore T200 Evaluation software v2.0 (GE Healthcare).

[3] = test system: RAW 264.7 cells; assay: Transwell migration assay of monocytes/macrophages with laminin 421; type: cell-based; conditions: 100 nM, 24 h, laminin 421 1 μg/ml
Description: The effect on immune cell migration and invasion was investigated using N3 IgG antibody as a representative among the antibodies constructed in Example 1 above. Specific experimental methods were as follows. Transwell (Corning, #3421-5 mm) was coated with gelatin (0.5 mg/ml), and then RAW 264.7 cells (1×10^5 cells/well) were seeded in the top chamber. Serum-free DMEM (500 μl) containing laminin 421 (1 μg/ml) was placed in the bottom chamber. The top chamber was treated with each antibody at 100 nM. After 24 h, immobilization with 70% methanol was carried out for 30 min, and then staining with 50% hematoxylin was carried out for 30 min. The non-migrating cells present on the upper part of the membrane were removed by cotton swabs, and then the membrane was taken and mounted on the slide. The migrating cells present on the bottom surface of the membrane were observed by a high-resolution microscope (FIG. 20A), and the cells were counted on the obtained images and plotted on the graph (FIG. 20B).

[4] = test system: pulmonary arterial hypertension (PAH) models; assay: Blood pressure and cardiac output in monocrotaline PAH model; type: in vivo, rat; conditions: for CO / LVEDP / LVESP / RVEDP / RVESP: i.v. twice a week, 3 weeks, n = 5
Description: After three weeks, the rats were anesthetized with isoflurane, and measured for blood flow and pressure by using a high-precision pneumatic measurement system (MPVS cardiovascular pressure and volume system, model name: MPVS Ultra, manufacturer: Millar Instruments). The right ventricular end-systolic pressure (RVESP), right ventricular end-diastolic pressure, left ventricular end-systolic pressure, left ventricular end-diastolic pressure were measured using an exclusive catheter (Mikro-Tip rat pressure catheter, manufacturer: Millar Instruments). The cardiac output was measured using a perivascular blood flow probe (Transonic Flow probes, manufacturer: Millar Instruments), and experimental method thereof was performed by the same method as disclosed in the following literature: Pacher P, Nagayama T, Mukhopadhyay P, Batkai S, Kass D A. Measurement of cardiac function using pressure-volume conductance catheter technique in mice and rats. Nat Protoc 2008; 3(9):1422-34.
The models of PAH, which is a disease having a close relation between immune cell invasion and pathological phenomena, were treated with N3 IgG antibody (1 mpk or 10 mpk) for 3 weeks (i.v., twice a week), and then measured for right ventricular end-systolic pressure (RVESP), right ventricular end-diastolic pressure (RVEDP), left ventricular end-systolic pressure (LVESP), left ventricular end-diastolic pressure (LVEDP), and cardiac output (CO).

[5] = target: T1, extracellularly exposed KRS N-terminal region (Homo sapiens, UniProt Q15046, T52D); assay: Immunofluorescence staining of converted IgGs; type: cell-based; conditions: T52D-KRS (active mutant, myc tagged KRS)
T1 construct: expressed in transfected cells; host or cells: A549
Description: (§1) Immunofluorescence was performed to investigate whether the scFv clones selected in Example <1-5> actually bound to the KRS N-terminal region exposed on the cell membrane. In order to make a phenomenon in which KRS is exposed on the membrane, KRS-T52D mutant (active mutant) was used. […] After incubation for 24 h, the cells were incubated using serum-free media (RPMI 1640 media) at 37° C. for 1 h. Thereafter, the cells were treated with 10 μg/ml laminin (L2020; Sigma) and then incubated at 37° C. for 1 h.
(§2) The prepared samples were washed with PBS (4° C.), fixed by the treatment with 4% paraformaldehyde for 10 min, and then washed. The samples were blocked with CAS block for 10 min, and treated with the scFv and Myc antibodies for 2 h. Thereafter, the unbound antibodies were washed out, and incubated with secondary antibodies for 1 h in a dark room. DAPI staining was performed for 10 min before mounting.
(§3) To investigate whether the IgGs constructed in the present invention actually bound to the region of KRS exposed on the cell membrane, immunofluorescence was performed. Immunofluorescence staining was performed by the same method as described in Example <1-6> by using N3 IgG and N5 IgG as representatives.

[6] = target: T2, extracellularly exposed KRS N-terminal region (Homo sapiens, UniProt Q15046); assay: Immunofluorescence staining of converted IgGs; type: cell-based; conditions: WT-KRS membrane localization induced by laminin treatment
T2 construct: expressed in transfected cells; host or cells: A549
Description: as §1, §2, §3

[7] = N3 IgG immobilized, peptides in PBS

T1 sequence (Q15046 whole entry T52D): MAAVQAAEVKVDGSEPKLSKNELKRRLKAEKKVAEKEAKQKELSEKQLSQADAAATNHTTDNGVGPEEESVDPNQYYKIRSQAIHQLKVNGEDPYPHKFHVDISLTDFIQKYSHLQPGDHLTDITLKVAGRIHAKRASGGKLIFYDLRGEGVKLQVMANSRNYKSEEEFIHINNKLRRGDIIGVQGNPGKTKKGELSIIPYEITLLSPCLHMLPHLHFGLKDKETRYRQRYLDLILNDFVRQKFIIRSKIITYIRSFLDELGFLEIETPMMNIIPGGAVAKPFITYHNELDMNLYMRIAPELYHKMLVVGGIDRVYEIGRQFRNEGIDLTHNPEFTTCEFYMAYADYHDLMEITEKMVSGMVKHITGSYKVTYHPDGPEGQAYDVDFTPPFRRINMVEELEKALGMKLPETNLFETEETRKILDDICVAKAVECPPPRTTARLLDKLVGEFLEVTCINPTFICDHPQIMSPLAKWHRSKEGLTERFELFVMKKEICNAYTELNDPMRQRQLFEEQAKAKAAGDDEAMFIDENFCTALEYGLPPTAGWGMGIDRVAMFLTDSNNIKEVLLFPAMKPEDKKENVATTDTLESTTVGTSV
T2 sequence (Q15046 whole entry): as the sequence (Q15046 whole entry T52D) above, with D52T counted along it

main binding site in the KRS N-terminal region ([2]; amino acid positions): positions 15 to 29
binding to extracellularly exposed KRS N-terminal region (immunofluorescence) [5]: favorably bound
binding to extracellularly exposed KRS N-terminal region (immunofluorescence) [6]: favorably bound specifically
B1: N3 IgG: IgG converted from N3 scFv; VH SEQ ID NO: 49, VL SEQ ID NO: 51; binds KRS N-terminal region (antibody, V domains shown)
VH: EVQLLESGGGLVQPGGSLRLSCAASGFTFSSYDMSWVRQAPGKGLEWVSAISYDNGNTYYADSVKGRFTISRDNSKNTLYLQMNSLRAEDTAVYYSARMALDFDYWGQGTLVTVSS
VL: QSVLTQPPSASGTPGQRVTISCTGSSSNIGSNYVTWYQQLPGTAPKLLIYDNSNRPSGVPDRFSGSKSGTSASLAISGLRSEDEADYYCASWDDSLSAYVFGGGTKLTVL
monocyte/macrophage infiltration into lung tissues (CD68 IHC) [1]: explicitly reduced
binding to human KRS N-terminal epitopes F1-F5 (SPR) [2, 7]: bound to epitopes F1, F2, F3, and F4, but not epitope F5
rank of binding ability among human epitopes [2, 7]: the binding ability to epitope F4 was strongest, and the binding ability to F3, F2, and F1 was stronger in that order
inhibition of LN421-dependent monocyte/macrophage migration [3]: effectively inhibited
change in RVESP ([4]; 1 mpk and 10 mpk, PAH models): significantly reduced
CO ([4]; MCT + N3 Ab 1 mpk): 74.0 ± 0.9 mL/min
LVEDP ([4]; MCT + N3 Ab 1 mpk): 2.6 ± 1.9 mmHg
LVESP ([4]; MCT + N3 Ab 1 mpk): 95.8 ± 4.8 mmHg
RVEDP ([4]; MCT + N3 Ab 1 mpk): 1.4 ± 2.2 mmHg
RVESP ([4]; MCT + N3 Ab 1 mpk): 45.0 ± 8.1 mmHg
CO ([4]; MCT + N3 Ab 10 mpk): 59.8 ± 12.9 mL/min
LVEDP ([4]; MCT + N3 Ab 10 mpk): 4.6 ± 3.9 mmHg
LVESP ([4]; MCT + N3 Ab 10 mpk): 93.4 ± 11.3 mmHg
RVEDP ([4]; MCT + N3 Ab 10 mpk): 3.8 ± 1.3 mmHg
RVESP ([4]; MCT + N3 Ab 10 mpk): 41.2 ± 7.7 mmHg
change in LVESP ([4]; PAH models, antibody administered group): significantly increased
